± gives the uncertainty stated by the source.
B1: Ankyrin-3, residues 4094 to 4171; numbered along this chain, Q12955 (parent)
chain: MAIVADHLGLSWTELARELNFSVDEINQIRVENPNSLISQSFMLLKKWVTRDGKNATTDALTSVLTKINRIDIVTLLE

Variants of: B1
Experiment: abundance fitness (aPCA) (normalised: wild type 0, dead -1); higher = more abundant; growth selection in yeast, the domain comes from the species named
Details: Homo sapiens

Variant | abundance fitness
R70Q | -0.908 ± 0.23
I38W | -0.039 ± 0.071
I3E | -0.342 ± 0.083
S36V | -0.952 ± 0.16
A56L | -0.433 ± 0.075
L19S | -1.05 ± 0.18
P34V | -1.11 ± 0.21
Q28C | -0.318 ± 0.19
I68W | -0.878 ± 0.28
T62G | -0.201 ± 0.058
D72W | -0.894 ± 0.32
D24M | -0.424 ± 0.096
T58V | 0.05 ± 0.059
E32P | -0.593 ± 0.11
D6E | 0.096 ± 0.069
V74T | -0.142 ± 0.099
W48Q | -0.808 ± 0.33
E18K | -0.532 ± 0.3
N69W | -1.01 ± 0.44
I29V | -0.302 ± 0.057
N20C | -0.348 ± 0.16
E14A | -0.082 ± 0.068
E18T | -0.427 ± 0.17
R30S | -0.074 ± 0.058

Variant | abundance fitness
V74S | -0.656 ± 0.12
D6V | -0.296 ± 0.07
R70G | -1 ± 0.14
V31F | -0.086 ± 0.11
D6M | -0.299 ± 0.17
I71C | -0.167 ± 0.15
L76W | -0.489 ± 0.12
T75F | -0.236 ± 0.22
R51A | -0.78 ± 0.12
I29S | -0.846 ± 0.11
L77T | -0.434 ± 0.097
I29T | -0.752 ± 0.15
V23S | -0.061 ± 0.048
R51P | -0.77 ± 0.11
E32Y | -0.278 ± 0.2
I26D | -0.886 ± 0.16
Q28H | -0.202 ± 0.12
L76P | -0.438 ± 0.079
M1H | -0.587 ± 0.44
N35A | -0.215 ± 0.068
Q28T | -0.223 ± 0.083
S39T | -0.016 ± 0.042
E14R | -0.289 ± 0.05
V23L | -0.048 ± 0.042

Variant | abundance fitness
G9A | -0.499 ± 0.074
V23P | -0.034 ± 0.05
A60E | 0.061 ± 0.075
R30T | -0.158 ± 0.085
N69Q | -0.061 ± 0.12
V49L | -0.058 ± 0.06
I73S | -0.849 ± 0.25
T50R | -0.094 ± 0.058
I68L | -0.219 ± 0.057
K54L | -0.051 ± 0.048
K46P | -0.915 ± 0.12
N27F | -0.244 ± 0.08
S39N | 0.142 ± 0.28
I3Q | -0.33 ± 0.076
E78Y | -0.159 ± 0.14
V4N | -0.663 ± 0.22
T75C | -0.081 ± 0.071
N69E | -0.032 ± 0.12
P34A | -0.245 ± 0.056
R70P | -0.74 ± 0.29
L37F | -0.231 ± 0.094
V74F | -1.08 ± 0.37
T58K | 0.016 ± 0.13
I38K | 0.05 ± 0.13

Variant | abundance fitness
S36R | -0.449 ± 0.081
E14T | -0.198 ± 0.086
A56V | -0.037 ± 0.049
I3H | -0.523 ± 0.17
S22Y | -0.646 ± 0.37
A2G | 0.14 ± 0.051
N27D | -0.272 ± 0.12
S39E | -0.103 ± 0.094
I38V | 0.027 ± 0.068
I68M | -0.244 ± 0.097
V4W | -1.01 ± 0.38
V49D | -0.392 ± 0.14
D24W | -0.435 ± 0.077
L65P | -0.701 ± 0.099
P34Q | -0.067 ± 0.078
S63E | -0.075 ± 0.11
M43F | -0.265 ± 0.18
W12C | -0.931 ± 0.28
L8W | -0.552 ± 0.15
S63C | -0.11 ± 0.087
L65Q | -1.05 ± 0.27
S39K | 0 ± 0.16
A60F | -0.086 ± 0.11
F21N | -0.57 ± 0.22

Variant | abundance fitness
H7K | -0.016 ± 0.1
V49K | -0.093 ± 0.098
N20H | -0.035 ± 0.099
V23F | -0.142 ± 0.092
I68G | -0.916 ± 0.15
D24L | -0.272 ± 0.063
A5H | -0.716 ± 0.43
K67R | -0.091 ± 0.1
D52Q | -0.359 ± 0.062
N27H | -0.06 ± 0.12
P34L | -0.874 ± 0.11
I3G | -0.506 ± 0.06
T13I | -0.02 ± 0.1
A2Y | -0.037 ± 0.21
L44D | -0.695 ± 0.32
V74L | -0.399 ± 0.074
W12P | -0.433 ± 0.11
F42R | 0.188 ± 0.052
A2E | 0.224 ± 0.084
S39A | 0.05 ± 0.055
L10V | 0.029 ± 0.06
A60W | -0.458 ± 0.073
V23C | -0.22 ± 0.1
L45P | -0.92 ± 0.15

Variant | abundance fitness
K47C | -0.369 ± 0.12
M43R | -0.128 ± 0.045
T58L | -0.002 ± 0.05
R17M | -0.053 ± 0.099
L19G | -1.01 ± 0.15
S63M | -0.046 ± 0.064
T75R | -0.002 ± 0.048
T58G | -0.104 ± 0.04
E32R | -0.126 ± 0.051
L15T | -0.891 ± 0.3
L65C | -0.505 ± 0.091
I71V | 0.015 ± 0.055
K67T | -0.228 ± 0.18
T66C | -0.21 ± 0.078
V23H | 0.02 ± 0.12
E14M | -0.185 ± 0.094
F21T | -0.869 ± 0.32
K47Q | -0.19 ± 0.094
F21M | -0.561 ± 0.14
W12M | -0.844 ± 0.25
L61A | -0.732 ± 0.11
F42S | 0.174 ± 0.056
L15I | -0.387 ± 0.2
D59A | -0.032 ± 0.074

Variant | abundance fitness
Q28R | -0.071 ± 0.043
N27G | -0.798 ± 0.1
S41R | -0.725 ± 0.074
S36E | -0.172 ± 0.085
E14K | -0.347 ± 0.15
A56T | -0.517 ± 0.11
T66V | 0.018 ± 0.045
I29R | -0.857 ± 0.16
L37V | 0.048 ± 0.067
N27K | -0.112 ± 0.11
I71E | -0.066 ± 0.095
E25H | -0.859 ± 0.23
V64F | 0.111 ± 0.052
F21W | -0.978 ± 0.22
P34H | -0.268 ± 0.15
F42Q | 0.074 ± 0.092
K47M | -0.005 ± 0.08
F21Q | -0.694 ± 0.2
I26S | -0.805 ± 0.17
E14V | -0.02 ± 0.057
A2M | -0.175 ± 0.1
T57M | -0.394 ± 0.11
L19W | -0.494 ± 0.078
